The results in this text go back to article PMC8892012.

The target in this experiment is arrestin-3 fused to Renilla luciferase (UniProt P32121). In words: BRET arrestin-3 interaction assay. Conditions: maximal zaprinast-stimulated BRET; receptor-eYFP co-transfected with arrestin-3-Renilla luciferase; n = 3, ± SD; parent: est. 100; read off a plot. Background: Bioluminescence resonance energy transfer reports proximity on the nanometre scale.
Chain of UniProt P32121 (P32121 whole entry, the tested form may be a part): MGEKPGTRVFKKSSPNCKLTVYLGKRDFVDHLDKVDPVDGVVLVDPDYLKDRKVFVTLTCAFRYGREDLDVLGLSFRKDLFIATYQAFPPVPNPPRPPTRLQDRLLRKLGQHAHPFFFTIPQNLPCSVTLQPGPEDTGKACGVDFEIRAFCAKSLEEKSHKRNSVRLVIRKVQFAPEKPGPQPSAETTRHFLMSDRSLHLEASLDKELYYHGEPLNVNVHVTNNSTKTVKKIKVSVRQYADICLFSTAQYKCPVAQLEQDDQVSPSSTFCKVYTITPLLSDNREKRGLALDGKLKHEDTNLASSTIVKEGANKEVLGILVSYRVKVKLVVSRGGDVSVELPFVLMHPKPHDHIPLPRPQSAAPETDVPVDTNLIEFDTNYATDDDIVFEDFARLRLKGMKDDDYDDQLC
With rGPR35-eYFP S286A, the percent of parent (% WT response) is 125.
Regarding “rGPR35-eYFP S286A; T290A; S291A; S292A; T293A; S297A; T300A; S302A; S304A; T306A”, the percent of parent (% WT response) turned out to be 7.
Next, rGPR35-eYFP S297A; T300A: 10; rGPR35-eYFP S302A; S304A; T306A: 33; rGPR35-eYFP T290A; S291A; S292A; T293A: 83.
